The results in this text go back to patent US20160146830A1 (published 2016).

Substitutions are numbered along the chain they refer to.

First the molecules themselves.
B1: TT-11 (antibody, V domains shown)
VH: QVQLVESGAEVKKPGASVRVSCKASGYTFTNYGLAWVRQAPGQGLEWMGWITVYNGHTSYAQKFHDRVTMTTDTSTRTAYLEVRNLGSDDTAVYYCARKPRFYYDTSAWFEFWGQGTLVTVSS
VL: DIVLTQSPETLSVSPGESATLSCRASQSVSTDLAWYQHKPGQAPRLLIWGASTRATGIPARFSGSGSGTEFTLTISSLQSEDFAICFCHQYNNWPTFGQGTKVEIK
notes: also called VH-13/VL-13
B2: TT-3 (antibody, V domains shown)
VH: QVQLVQSGAEVKKPGASVRVSCKASGYTFTRYAMHWVRQAPGQRPEWMGWINVDNGNTEYSQKFQGRLTITRDTSASTAYMELSSLTSDDTAVYYCAKDRVRVVQAATTLDFWGQGTLVTVSS
VL: EIVLTQSPGTLSLSPGERATLSCRASQTIPSKYLGWYQQKLGQAPRLLIYGASSRATGIPDRFSGSGSGTDFTLTISRLEPEDFAVYYCQQYGSLSAITFGQGTRLEIK
notes: also called VH-3/VL-3
B3: TT-9 (antibody, V domains shown)
VH: QVQLQESGPGLVKPSGTLSLTCAVSGVPVYTGHWWTWVRQAPGKGLEWIGEIHHTVTTNYNPSLRSRVTISEDRSKNQISLTLQSVTAADTAVYFCARGEDCVGGSCYSADWGQGILVTVSS
VL: EIVLTQSPSSLSASVGDRVTITCRASQNIHLFLNWYQQRPGRVPKVLIYATSTLQSGVPSRFSGSGSGTDFTLTISSVQPEDFATYYCQQSFSTPRTFGPGTKVEIK
notes: also called VH-10/VL-10
B4: TT-1 (antibody, V domains shown)
VH: QVQLVESGGGLVQPGRSLRLSCVGSGFSFESYAMHWVRLAPGKGLEWVAGISWDSGAKGNADSVEGRFTISRDNAKKSVYLEMRSLRPEDTAFYYCAKAPIIGPKYYFYMDVWGKGTSVTVSS
VL: EIVLTQSPGTLSLSPGERATLSCRASQRVKSSYLAWYQQKPGQAPRLLIYDASTRATGIPDRFSGSGSGTDFTLTISRLEPEDVAVYYCQQYGTSRGTFGQGTRLEIK
notes: also called VH-1/VL-1
B5: TT-10 (antibody, V domains shown)
VH: B4 VH with V5Q, L39Q, V79L, Y106H
VL: B4 VL
notes: also called VH-11/VL-11
B6: TT-7 (antibody, V domains shown)
VH: QVQLQESGPGLVRPSQTLSLTCTVSGDSISDGDSFWSWIRQPPGKGPEWIGYISSSGTTYYYPSLRGRLTVSLDASKNQFSLSLTSVTAADTAVYYCARARNYGFPHFFDFWGRGTLVTVSS
VL: DIQMTQSPSTLSASVGDSVTITCRASQSITRWLAWYQQKPGKAPKLLIYKASLLESGVPSRFSGSGSGTEFTLTISSLQPDDFATYYCQQYNSYSPWTFGPGTKLEIK
notes: also called VH-8/VL-8
B7: TT-6 (antibody, V domains shown)
VH: QVQLVESGSEVRKPGASVKVSCKASGYTFSRYGLTWVRQAPGQGLEWMGWISGYNSNTNYAPKFQGRVTMTTDTSTNTAYLELRSLRSNDTAVYYCARDYFHSGSQYFFDYWGQGSLVTVSS
VL: DIRLTQSPSSLSASVGDRVTITCRSSQTISTYLNWYQQKPGEAPKILIYAASSLHTGVPSRFSGSGSGTDFTLTITSLQPEDFAIYHCQQSYSTPYTFGQGTKVEIK
notes: also called VH-7/VL-7
B8: TT-5 (antibody, V domains shown)
VH: QVQLQESGPGLVKPSETLSLTCTVSGGSINSYYWSWIRQSPGKGLEWIGYIYYTGINKYNPSLKSRVTISMDTSKRQVSLKVTSLTPADTAVYFCARLHPTCASTRCPENYGMDVWGQGTTVAVSS
VL: B7 VL
notes: also called VH-5/VL-5
B9: TT-2 (antibody, V domains shown)
VH: QVQLVQSGGGVKQPGGSLRLSCTASGFTFEDFNMHWVRQAPGKGLEWISYISGDGDRTHYSDSVRGRFTISRDNSGNSLYLQMTSLRTEDAGFYYCGKSYDYIRENLDSWGQGTLVTVSS
VL: QPGLTQPPSVSVAPGQTARITCGGNNIGSRHVHWYQQRPGQAPVLVVYDDDARPSGISGRFSGSNSGNTATLTISWVEAGDEADYYCQVSDSGREWGVFGSGTKVTVL
notes: also called VH-2/VL-2
B10: TT-8 (antibody, V domains shown)
VH: QVQLVESGGGLVKPGGSLRLSCAASGFSFSHYSMNWIRQAPGKGLEWVASITSGSTNMVYADSLRARFSISRDNAKNSLYLQMDSLSAEDTAVYYCARKGMGHYFDFWGQGTPVTVSS
VL: QTVVTQEPSSSVSLGGTVTLTCGLTSGPVTGAYYPSWHQQTPGQAPRTLIYNTYSLSSGVSDRFSGSILGNKAALTISGAQADDESDYYCVLYMGSGIWMFGGGTKLTVL
notes: also called VH-9/VL-9
B11: TT-4 (antibody, V domains shown)
VH: QVTLKESGPALVKPTQTLTLTCTFSGFSLLSSGMCVSWIRQPPGKALEWLARIDWDEKKYYSPSLKTRLTISKDTSKDQVVLTMTNMDPLDTAMYSCARGVVPAGIPFDFWGQGIMVTVSS
VL: ETTLTQSPSTLPASVGDRVTITCRASENINSWLAWYQQKPGKAPKILIYRASNLESGVPSRFSGSGSGTEFTLTISSLQPDDFATYYCQHFDKYFSWTFGHGTKVEIK
notes: also called VH-4/VL-4

In this assay the target is Tetanus toxoid (TT) (UniProt P04958 2-1315). Briefly: competitive ELISA, IgG equilibrated with soluble TT, TT-coated plate. A general note: An ELISA detects its analyte on a solid surface through an enzyme-linked reagent.
Sequence of Tetanus toxoid (TT) (P04958 2-457 limits assumed, chain 1 of 2): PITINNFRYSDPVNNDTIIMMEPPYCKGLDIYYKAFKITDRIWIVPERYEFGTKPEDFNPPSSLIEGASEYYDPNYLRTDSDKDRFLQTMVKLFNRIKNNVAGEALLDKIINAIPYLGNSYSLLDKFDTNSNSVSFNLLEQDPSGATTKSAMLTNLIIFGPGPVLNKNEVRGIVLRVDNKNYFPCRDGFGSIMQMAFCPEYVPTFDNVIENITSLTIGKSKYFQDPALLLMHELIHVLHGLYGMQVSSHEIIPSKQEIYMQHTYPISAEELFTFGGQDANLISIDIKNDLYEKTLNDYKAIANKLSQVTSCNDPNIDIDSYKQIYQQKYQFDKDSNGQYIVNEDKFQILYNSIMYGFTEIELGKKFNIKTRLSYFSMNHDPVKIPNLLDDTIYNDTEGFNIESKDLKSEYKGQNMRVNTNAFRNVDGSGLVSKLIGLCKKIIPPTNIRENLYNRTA
Sequence of Tetanus toxoid (TT) (P04958 458-1315 limits assumed, chain 2 of 2): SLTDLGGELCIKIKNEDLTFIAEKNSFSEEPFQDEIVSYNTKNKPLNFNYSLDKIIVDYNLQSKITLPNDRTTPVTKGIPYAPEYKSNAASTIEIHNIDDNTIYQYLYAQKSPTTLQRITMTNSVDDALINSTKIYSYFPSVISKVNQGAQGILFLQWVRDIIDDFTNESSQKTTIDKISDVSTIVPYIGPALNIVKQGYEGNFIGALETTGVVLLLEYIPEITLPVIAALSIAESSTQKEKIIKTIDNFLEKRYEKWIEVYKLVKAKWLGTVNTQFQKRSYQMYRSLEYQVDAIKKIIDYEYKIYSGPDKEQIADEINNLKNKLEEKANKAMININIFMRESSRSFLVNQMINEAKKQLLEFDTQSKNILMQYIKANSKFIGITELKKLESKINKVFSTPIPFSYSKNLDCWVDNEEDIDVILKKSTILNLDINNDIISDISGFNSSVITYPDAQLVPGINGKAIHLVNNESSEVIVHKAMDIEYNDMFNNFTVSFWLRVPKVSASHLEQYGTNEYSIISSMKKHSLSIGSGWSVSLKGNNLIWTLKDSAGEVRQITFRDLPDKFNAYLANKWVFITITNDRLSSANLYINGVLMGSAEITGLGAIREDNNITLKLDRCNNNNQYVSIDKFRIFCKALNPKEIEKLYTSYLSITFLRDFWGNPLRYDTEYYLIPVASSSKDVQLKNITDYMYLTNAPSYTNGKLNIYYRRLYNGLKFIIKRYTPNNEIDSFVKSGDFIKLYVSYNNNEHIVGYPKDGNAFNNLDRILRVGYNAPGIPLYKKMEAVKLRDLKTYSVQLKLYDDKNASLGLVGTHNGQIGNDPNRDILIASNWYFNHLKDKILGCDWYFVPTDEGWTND
In the case of B1, the Kd is 1.6 nM. This lies in the single-digit nanomolar range.

With B2, the Kd was 3.7 nM. Then B3, with 0.1 nM.

In the case of B4, the Kd amounted to 1.6 nM.

As for B5, the Kd is 0.9 nM. Compared with the last molecule, the Kd is about 1.8-fold lower. Take B6: binding was characterised by a dissociation constant (Kd) of 0.5 nM.

Molecule B7 showed a dissociation constant (Kd) of 0.6 nM.

Regarding B8, the Kd came to 18.1 nM. Then B9, with 22.6 nM; and B10, with 2.8 nM; and B11, with 3.2 nM.

Usually Kd stands for the equilibrium constant for the complex coming apart. Lower therefore signals a tighter complex.
